Consider 4 molecules from article PMC5584928.

Positions count from the first letter of the chain named. Names may count otherwise.

T1: integrin αvβ3 on β3-CHO cells (recombinant hamster αv/human β3 hybrid), P05106
T1 chain: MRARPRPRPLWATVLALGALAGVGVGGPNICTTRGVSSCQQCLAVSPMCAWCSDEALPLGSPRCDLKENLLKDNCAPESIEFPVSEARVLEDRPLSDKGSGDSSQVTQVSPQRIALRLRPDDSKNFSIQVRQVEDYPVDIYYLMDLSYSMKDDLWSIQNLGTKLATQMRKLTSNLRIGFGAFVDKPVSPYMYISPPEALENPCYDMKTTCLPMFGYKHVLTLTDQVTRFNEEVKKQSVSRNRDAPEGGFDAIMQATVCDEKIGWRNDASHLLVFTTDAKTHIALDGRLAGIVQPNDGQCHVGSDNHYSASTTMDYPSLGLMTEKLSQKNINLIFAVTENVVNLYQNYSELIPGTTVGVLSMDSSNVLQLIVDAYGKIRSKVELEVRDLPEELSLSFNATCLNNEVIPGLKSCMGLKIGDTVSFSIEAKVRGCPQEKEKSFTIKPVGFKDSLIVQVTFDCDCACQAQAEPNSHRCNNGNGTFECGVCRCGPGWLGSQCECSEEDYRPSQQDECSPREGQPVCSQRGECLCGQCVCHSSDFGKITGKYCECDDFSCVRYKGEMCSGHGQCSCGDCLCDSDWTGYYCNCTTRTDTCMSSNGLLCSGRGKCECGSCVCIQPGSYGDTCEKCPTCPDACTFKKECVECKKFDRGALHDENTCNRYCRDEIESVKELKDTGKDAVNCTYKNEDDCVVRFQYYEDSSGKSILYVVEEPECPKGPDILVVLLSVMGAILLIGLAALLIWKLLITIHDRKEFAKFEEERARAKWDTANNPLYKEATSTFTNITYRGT

B1: WT IGF2 (insulin-like growth factor-2) R24E; R34E; R37E; R38E (protein)
chain: AYRPSETLCGGELVDTLQFVCGDEGFYFSRPASEVSEESRGIVEECCFRSCDLALLETYCATPAKSE
B2: WT IGF2 (insulin-like growth factor-2) R34E; R37E; R38E (protein)
chain: B1 chain with E24R
B3: WT IGF2 (insulin-like growth factor-2) R24E; R37E; R38E (protein)
chain: B1 chain with E34R
B4: WT IGF2 (insulin-like growth factor-2) R30E; R37E; R38E (protein)
chain: B1 chain with E24R, R30E, E34R

One assay deals with T1, integrin αvβ3 on β3-CHO cells …. Kind of assay: cell adhesion assay (β3-CHO cells on coated IGF2). The settings on record: chain shown with the change; 10 µg/ml IGF2; Tyrode-HEPES buffer, 1 mM Mg2+; parent: est. 43; read off a plot.
Take B1: the response turned out to be 15 % Adhesion.
Same read-out and setting: as for B2, the figure is 15 % Adhesion.
As to B3, the response worked out at 16 % Adhesion.
As for B4, the response was determined as 25 % Adhesion.

Staying with this assay, now noted: chain shown with the change; IGF2 coating 5 µg/ml; Tyrode-HEPES buffer, 1 mM Mg2+; parent: est. 30; read off a plot.
B2: the response worked out at 6.5 % Adhesion.
B3: the response turned out to be 9.5 % Adhesion.
On to B4, for which the response amounted to 20 % Adhesion.

The assay is the same for the next values; noted with them: chain shown with the change; IGF2 coating 10 µg/ml; Tyrode-HEPES buffer, 1 mM Mg2+; parent: est. 43; read off a plot.
For the molecule B2, the response was determined as 16 % Adhesion.
Turning to B3, the response turned out to be 16 % Adhesion.
With B4, the response came out at 25 % Adhesion.

Staying with this assay, now noted: chain shown with the change; IGF2 coating 20 µg/ml; Tyrode-HEPES buffer, 1 mM Mg2+; parent: est. 56; read off a plot.
With B2, the response worked out at 15 % Adhesion.
Consider B3, for which the response worked out at 17 % Adhesion.
The same measure, in the same setting: the value for B4 was 36 % Adhesion.
